Sequences and labels used below:
B1: C0120918 human Alya IgG1 (antibody, V domains shown)
VH: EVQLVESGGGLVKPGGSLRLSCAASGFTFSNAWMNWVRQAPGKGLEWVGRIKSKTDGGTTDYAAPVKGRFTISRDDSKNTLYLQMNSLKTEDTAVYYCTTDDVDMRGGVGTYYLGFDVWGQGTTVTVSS
VL: SYELTQPPSVSVSPGQTARITCSGDALPKQYAYWYQQKPGQAPVLVIYKDSERPSGIPERFSGSSSGTTVTLTISGVQAEDEADYYCQSADSSGTWVFGGGTKVTVL
notes: Fully human, phage display derived; human IgG1 Alya constant (239iCys, S442C, EU); unconjugated
B2: C0120917 human Alya IgG1 (antibody, V domains shown)
VH: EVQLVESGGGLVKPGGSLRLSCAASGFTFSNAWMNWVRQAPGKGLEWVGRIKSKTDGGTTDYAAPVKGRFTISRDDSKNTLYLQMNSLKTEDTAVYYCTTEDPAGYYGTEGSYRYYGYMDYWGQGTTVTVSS
VL: NFMLTQPHSVSESPGKTVTISCTASGDTLDNKYVNWYQVRPGSAPATLIFHYEERDSGVPDRFSGSFDASSNSASLTISGLQTADEADYFCQSYDSKRDNLVVFGGGTKVTVL
notes: as for B1
B3: mouse 5E3 expressed as human IgG1 Alya (antibody, V domains shown)
VH: QVQLQQPGAELVMPGASVKMSCKASGYTFTDYWMHWVKQRPGQGLEWIGAIDTSDSYTSYNQKFKGKATLTVDESSSTAYMQLSSLTSEDSAVYYCARDYGNFYYYAMDYWGQGTSVTVSS
VL: QAVVTQESALTTSPGETVTLTCRSSTGAVTTSNYANWVQEKPDHLFTGLIGGTNNRAPGVPARFSGSLIGDKAALTITGAQTEDEAIYFCALWYSNHWVFGGGTKLTVL
notes: Mouse variable domains on human IgG1 Alya constant (pEU1.22; 239iCys and S442C, EU numbering); purified, unconjugated; also called 5E3 IgG1 Alya
B4: C0120906 human Alya IgG1 (antibody, V domains shown)
VH: EVQLVQSGPEVKKPGASVKISCKASGYKLNDPGVHGVSWVRQAPGQGLEWMGWISTLNGDTRYAQKFQGRVTMATDSSTSTIYMDLRSLKSDDTALYYCARDDYTAIFDFWGRGTLVTVSS
VL: QSVLTQPPSVSVAPGQTASITCGGSNIGSQSVHWYQQKPGQAPVLVVYDDSDRPSGIPERFSGSKSGNTASLILSRVEAGDEADYYCQVWDSSTDHHVFGTGTKVTVL
notes: as for B1
B5: C0120905 human Alya IgG1 (antibody, V domains shown)
VH: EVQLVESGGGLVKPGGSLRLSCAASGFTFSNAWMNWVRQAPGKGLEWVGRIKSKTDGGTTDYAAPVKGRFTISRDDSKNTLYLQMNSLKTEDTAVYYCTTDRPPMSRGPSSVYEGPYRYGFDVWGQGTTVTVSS
VL: NFMLTQPHSVSESPGKTVTISCTGSGGNIVDNFVQWHQQRPGSAPRTVIYEDDQRPSGVPDRFSASVDSSSNSGTLSISGLKTEDEADYYCQSYDGANRWVFGGGTKLTVL
notes: as for B1
B6: C0120914 human Alya IgG1 (antibody, V domains shown)
VH: QVQLQESGPGLVKPSETLSLTCTVSGGSVSSGRYDWSWIRQPPGKGLEWIGHIYYTGITDYNPSLRSRVTISADKPKNQFSLKLNSVTAADTAVYYCARGPFFDPWGQGTMVTVSS
VL: QSVLTQPPSVSVAPGQTASLTCGANNIGSKSVQWYQQKPGQAPVLVVYDGSDRPSGIPDRFSGSSSENTATLTISRVEAGDEADYYCQLWDSVTDRPVFGGGTKVTVL
notes: as for B1
B7: C0120903 human Alya IgG1 (antibody, V domains shown)
VH: EVQLVQSGAEVKKPGSSMKVSCKASGGTFNSYTINWVRQAPGQGLEWVGGFIPIFGTADYAQKFHGRVAITADESMSTAYMELSSLRSEDTAVYYCARAPLGSEPFDYWGQGTMVTVSS
VL: SYVLTQPPSVSVAPGQTARITCGGNNIGSKSVHWYQQKPGQAPVLVVYDDSDRPSGIPERFSGSNSGNTATLTISRVEAGDEADYYCQVWDSSSDHLVFGGGTKLTVL
notes: as for B1
B8: 5Hg2-5Lg1 human Alya IgG1 (antibody, V domains shown)
VH: QVQLVQSGAEVKKPGASVKVSCKASGYTFTDYWMHWVRQAPGQRLEWMGAIDTSDSYTSYNQKFKGRVTITRDTSASTAYMELSSLRSEDTAVYYCARDYGNFYYYAMDYWGQGTLVTVSS
VL: QAVVTQEPSLTVSPGGTVTLTCRSSTGAVTTSNYANWFQQKPGQAPRTLIYGTNNRAPWTPARFSGSLLGGKAALTLSGAQPEDEAEYYCALWYSNHWVFGGGTKLTVL
notes: Humanised 5E3; human IgG1 Alya constant (239iCys, S442C, EU), lambda light chain; purified, unconjugated
B9: 5Hg4-5Lg1 human Alya IgG1 (antibody, V domains shown)
VH: QVQLVQSGSELKKPGASVKVSCKASGYTFTDYWMHWVRQAPGQGLEWMGAIDTSDSYTSYNQKFKGRFVFSLDTSVSTAYLQICSLKAEDTAVYYCARDYGNFYYYAMDYWGQGTLVTVSS
VL: QAVVTQEPSLTVSPGGTVTLTCRSSTGAVTTSNYANWFQQKPGQAPRTLIYGTNNRAPWTPARFSGSLLGGKAALTLSGAQPEDEAEYYCALWYSNHWVFGGGTKLTVL
notes: as for B8
B10: 5Hg2-5Lg3 human Alya IgG1 (antibody, V domains shown)
VH: QVQLVQSGAEVKKPGASVKVSCKASGYTFTDYWMHWVRQAPGQRLEWMGAIDTSDSYTSYNQKFKGRVTITRDTSASTAYMELSSLRSEDTAVYYCARDYGNFYYYAMDYWGQGTLVTVSS
VL: QTVVTQEPSFSVSPGGTVTLTCRSSTGAVTTSNYANWYQQTPGQAPRTLIYGTNNRAPGVPDRFSGSILGNKAALTITGAQADDESDYYCALWYSNHWVFGGGTKLTVL
notes: as for B8
B11: 5Hg2-5Lg2 human Alya IgG1 (antibody, V domains shown)
VH: QVQLVQSGAEVKKPGASVKVSCKASGYTFTDYWMHWVRQAPGQRLEWMGAIDTSDSYTSYNQKFKGRVTITRDTSASTAYMELSSLRSEDTAVYYCARDYGNFYYYAMDYWGQGTLVTVSS
VL: QAVVTQEPSLTVSPGGTVTLTCRSSTGAVTTSNYANWFQQKPGQAPRTLIYGTNNRAPWTPARFSGSLLGGKAALTLLGAQPEDEAEYYCALWYSNHWVFGGGTKLTVL
notes: as for B8
B12: 5Hg1-5Lg2 human Alya IgG1 (antibody, V domains shown)
VH: QVQLVQSGAEVKKPGASVKVSCKASGYTFTDYWMHWVRQAPGQGLEWMGAIDTSDSYTSYNQKFKGRVTMTRDTSTSTVYMELSSLRSEDTAVYYCARDYGNFYYYAMDYWGQGTLVTVSS
VL: QAVVTQEPSLTVSPGGTVTLTCRSSTGAVTTSNYANWFQQKPGQAPRTLIYGTNNRAPWTPARFSGSLLGGKAALTLLGAQPEDEAEYYCALWYSNHWVFGGGTKLTVL
notes: as for B8
B13: 5Hg1-5Lg1 human Alya IgG1 (antibody, V domains shown)
VH: QVQLVQSGAEVKKPGASVKVSCKASGYTFTDYWMHWVRQAPGQGLEWMGAIDTSDSYTSYNQKFKGRVTMTRDTSTSTVYMELSSLRSEDTAVYYCARDYGNFYYYAMDYWGQGTLVTVSS
VL: QAVVTQEPSLTVSPGGTVTLTCRSSTGAVTTSNYANWFQQKPGQAPRTLIYGTNNRAPWTPARFSGSLLGGKAALTLSGAQPEDEAEYYCALWYSNHWVFGGGTKLTVL
notes: as for B8
B14: 5Hg4-5Lg5 human Alya IgG1 (antibody, V domains shown)
VH: QVQLVQSGSELKKPGASVKVSCKASGYTFTDYWMHWVRQAPGQGLEWMGAIDTSDSYTSYNQKFKGRFVFSLDTSVSTAYLQICSLKAEDTAVYYCARDYGNFYYYAMDYWGQGTLVTVSS
VL: QSVVTQPPSVSGAPGQRVTISCRSSTGAVTTSNYANWYQQLPGTAPKLLIYGTNNRAPGVPDRFSGSKSGASASLAITGLQAEDEADYYCALWYSNHWVFGGGTKLTVL
notes: as for B8
B15: 5Hg4-5Lg4 human Alya IgG1 (antibody, V domains shown)
VH: QVQLVQSGSELKKPGASVKVSCKASGYTFTDYWMHWVRQAPGQGLEWMGAIDTSDSYTSYNQKFKGRFVFSLDTSVSTAYLQICSLKAEDTAVYYCARDYGNFYYYAMDYWGQGTLVTVSS
VL: QSALTQPPSVSGSPGQSVTISCRSSTGAVTTSNYANWYQQPPGTAPKLMIYGTNNRAPGVPDRFSGSKSGNTASLTISGLQAEDEADYYCALWYSNHWVFGGGTKLTVL
notes: as for B8

The first test concerns the target T1, human SEMA4B expressed on expi293 cells (human, UniProt Q9NPR2 44-837).
T1 construct: whole, on cells
T1 sequence (looked up): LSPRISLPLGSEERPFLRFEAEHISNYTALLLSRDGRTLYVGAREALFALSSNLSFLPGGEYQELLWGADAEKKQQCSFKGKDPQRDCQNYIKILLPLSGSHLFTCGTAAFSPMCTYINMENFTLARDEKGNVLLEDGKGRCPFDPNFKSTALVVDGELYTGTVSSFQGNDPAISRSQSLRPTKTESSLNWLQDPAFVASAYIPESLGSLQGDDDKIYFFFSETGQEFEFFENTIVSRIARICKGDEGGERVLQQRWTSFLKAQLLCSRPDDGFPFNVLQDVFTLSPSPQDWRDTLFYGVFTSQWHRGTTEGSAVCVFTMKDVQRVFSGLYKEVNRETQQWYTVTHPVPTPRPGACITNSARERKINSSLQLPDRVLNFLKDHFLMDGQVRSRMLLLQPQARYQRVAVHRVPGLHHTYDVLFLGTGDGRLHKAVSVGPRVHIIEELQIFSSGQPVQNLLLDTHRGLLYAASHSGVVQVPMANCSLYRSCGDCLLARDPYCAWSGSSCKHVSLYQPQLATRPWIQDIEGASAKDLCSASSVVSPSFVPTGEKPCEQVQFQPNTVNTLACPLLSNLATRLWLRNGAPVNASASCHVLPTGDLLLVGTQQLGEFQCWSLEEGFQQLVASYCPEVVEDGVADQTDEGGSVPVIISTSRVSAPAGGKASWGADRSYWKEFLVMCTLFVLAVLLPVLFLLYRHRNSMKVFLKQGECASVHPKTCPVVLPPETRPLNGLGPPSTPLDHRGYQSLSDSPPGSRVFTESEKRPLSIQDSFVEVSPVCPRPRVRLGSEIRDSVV
Nature of the test: Mirrorball direct binding, dilution series on expi293 cells transiently transfected with human SEMA4B, anti-human Alexa Fluor 647.
As for B1, the binding result was “no binding (tested: log (M) -8 (1e-8 M))”. For B2, the binding result is on record as “no binding (tested: log (M) -8 (1e-8 M))”.

Take B3: the binding result is “no binding (tested: log (M) -8 (1e-8 M))”.

B4: the binding result is “no binding (tested: log (M) -8 (1e-8 M))”. On to B5, for which the binding result is “no binding (tested: log (M) -8 (1e-8 M))”. The same measure, in the same setting: in the case of B6 it was “no binding (tested: log (M) -8 (1e-8 M))”. As to B7, the binding result was “no binding (tested: log (M) -8 (1e-8 M))”.

For a further test, the target named is T2, cynomolgus SEMA4A expressed on expi293 cells (UniProt ID G7NV79) (cynomolgus, UniProt Q9H3S1 33-761 (human entry)).
T2 construct: Transient transfection in expi293 cells; also called cyno SEMA4A
T2 chain: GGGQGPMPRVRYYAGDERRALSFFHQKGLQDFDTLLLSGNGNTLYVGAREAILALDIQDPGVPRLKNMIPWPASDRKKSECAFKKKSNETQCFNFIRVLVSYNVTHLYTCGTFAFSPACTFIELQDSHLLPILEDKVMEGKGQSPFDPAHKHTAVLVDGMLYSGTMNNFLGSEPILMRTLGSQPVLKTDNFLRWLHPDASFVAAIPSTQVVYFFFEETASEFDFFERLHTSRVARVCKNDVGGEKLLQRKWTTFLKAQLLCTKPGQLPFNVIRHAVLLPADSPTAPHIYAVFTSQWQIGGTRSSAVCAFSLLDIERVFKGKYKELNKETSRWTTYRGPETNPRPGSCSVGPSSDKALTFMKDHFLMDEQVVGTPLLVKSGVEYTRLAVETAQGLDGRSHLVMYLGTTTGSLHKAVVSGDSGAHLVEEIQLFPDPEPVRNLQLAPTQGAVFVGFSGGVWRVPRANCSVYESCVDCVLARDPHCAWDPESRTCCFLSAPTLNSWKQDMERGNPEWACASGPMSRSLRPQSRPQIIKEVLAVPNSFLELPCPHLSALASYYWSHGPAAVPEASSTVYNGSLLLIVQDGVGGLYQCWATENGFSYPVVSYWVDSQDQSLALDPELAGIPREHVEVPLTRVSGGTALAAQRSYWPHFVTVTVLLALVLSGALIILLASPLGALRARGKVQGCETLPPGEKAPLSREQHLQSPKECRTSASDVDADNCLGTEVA
Nature of the test: Mirrorball direct binding, dilution series on expi293 cells transiently transfected with cyno SEMA4A, anti-human Alexa Fluor 647. An excerpt:
Hits from the primary screening were re-formatted into the human Alya IgG1 vector and re-expressed and purified as described in section 4.1. In addition, a single clone was identified that contained an Asparagine deamidation motif (Asn Gly) within its VHCDR2. This potential sequence liability was de-risked by synthesising de novo two clonal variant VH genes (Asn Ala and Gln Gly) and cloning these sequences into the human Alya IgG1 expression vector. To determine the specificity profile of each purified human Alya IgG1, a dilution series was tested for binding to human SEMA4A, mouse SEMA4A, cyno SEMA4A, human SEMA4B and mock transfected cells (transient transfections set up in expi 293 cells.) The five assays employed methods described in section 2.3, using the appropriate cells and substituting the un-purified scFv periplasmic preparation with the recombinant human Alya IgG1 dilution series. Data was analysed as Count x median mean intensity (x FLU).
Consider B8, for which the binding result was “binds”. B9: the binding result is “binds”.

As for B10, the binding result is on record as “binds”.

In the case of B11, the binding result is “binds”. B12: the binding result is listed as “binds”. Same read-out and setting: the entry for B13 is “binds”. For the molecule B14, the binding result is “binds”. For B15, the binding result is “binds”.

The record behind these values is patent US20250152729A1 (CANCER RESEARCH TECHNOLOGY, published 2025).
